This passage reports denaturant m value and unfolding free energy results from FireProtDB (doi:10.1021/bi061295h).

For the data set the following is noted: Equus caballus, pH 7.4, 25 °C, GdnHCl, reversible: Yes.

Sequence of Cytochrome c wild type, P00004 (P00004 whole entry): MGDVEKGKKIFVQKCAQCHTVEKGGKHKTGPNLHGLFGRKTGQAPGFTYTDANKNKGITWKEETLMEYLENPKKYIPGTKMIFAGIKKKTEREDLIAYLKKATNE

Take Cytochrome c wild type, P00004: for the setting “CD, Tris 20 mM”, the denaturant m value came to 2.8 kcal/mol/M and the unfolding free energy was 7.4 kcal/mol. Moreover, the denaturant m value (SUPREX, Sodium phosphate 20 mM) came to 3 kcal/mol/M.
